Patent publication US20210238260A1

How the values were obtained:
[1] = target: antithrombin III (plasma purified human AT-III), in complex with unfractionated heparin (human) (UniProt P01008); test: AT-III/UFH inhibition of FIXa; residual activity on Pefafluor FIXa substrate, varied incubation time
[2] = target: antithrombin III (AT-III), plasma purified human, in complex with unfractionated heparin (UFH) (human) (UniProt P01008); test: inhibition of FIXa by AT-III/UFH, pseudo-first-order, residual activity on Mesyl-D-CHG-Gly-Arg-AMC
[3] = target: plasma purified human AT-III (antithrombin III) in complex with unfractionated heparin (human) (UniProt P01008); test: residual FIXa activity on Mesyl-D-CHG-Gly-Arg-AMC after timed incubation with AT-III/UFH (0-500 nM AT-III, 1 uM UFH); kapp from K0.5

Substance “FIXa A103N/N105S/K247N/N249S/R318Y/R338E/R403E/E410N (from UniProt P00740 47-191; P00740 227-461) (enzyme)” has a kapp (apparent second-order rate constant for inhibition) [1] of 1700 M⁻¹ s⁻¹.
With “FIXa A103N/N105S/R318Y/R338E/R403E/E410N (from UniProt P00740 47-191; P00740 227-461) (enzyme)” the kapp (apparent second-order rate constant for inhibition) [1] was 2600 M⁻¹ s⁻¹.
In the case of “FIXa D85N/K228N/R318Y/R338E/R403E/E410N (from UniProt P00740 47-191; P00740 227-461) (enzyme)”, the kapp (apparent second-order rate constant for inhibition) [1] is reported as 3000 M⁻¹ s⁻¹.
Substance “FIXa D104N/K106S/I251S/R318Y/R338E/R403E/E410N (from UniProt P00740 47-191; P00740 227-461) (enzyme)” has a kapp (apparent second-order rate constant for inhibition) [1] of 5700 M⁻¹ s⁻¹.
“FIXa D104N/K106S/R318Y/R338E/R403E/E410N (from UniProt P00740 47-191; P00740 227-461) (enzyme)” showed a kapp (apparent second-order rate constant for inhibition) [1] of 3900 M⁻¹ s⁻¹.
“FIXa D104N/K106S/Y155F/K247N/N249S/R318Y/R338E/R403E/E410N (from UniProt P00740 47-191; P00740 227-461) (enzyme)” showed a kapp (apparent second-order rate constant for inhibition) [1] of 1000 M⁻¹ s⁻¹.
“FIXa D104N/K106S/Y155F/R318Y/R338E/R403E/E410N (from UniProt P00740 47-191; P00740 227-461) (enzyme)” showed a kapp (apparent second-order rate constant for inhibition) [1] of 2900 M⁻¹ s⁻¹.
For “FIXa D203N/F205T/R318Y/E410N (from UniProt P00740 47-191; P00740 227-461) (enzyme)”, the kapp (apparent second-order rate constant for inhibition) [1] was 53000 M⁻¹ s⁻¹.
“FIXa I251S/R318Y/R338E/E410N (from UniProt P00740 47-191; P00740 227-461) (enzyme)” gave a kapp (apparent second-order rate constant for inhibition) [1] of 240000 M⁻¹ s⁻¹.
Work on “FIXa I251S/R318Y/R338E/R403E/E410N (from UniProt P00740 47-191; P00740 227-461) (enzyme)” yielded a kapp (apparent second-order rate constant for inhibition) [1] of 3000 M⁻¹ s⁻¹.
Substance “FIXa K228N/R318Y/E410N (from UniProt P00740 47-191; P00740 227-461) (enzyme)” has a kapp (apparent second-order rate constant for inhibition) [1] of 1.9e+06 M⁻¹ s⁻¹.
Work on “FIXa K228N/R318Y/R338E/R403E/E410N (from UniProt P00740 47-191; P00740 227-461) (enzyme)” yielded a kapp (apparent second-order rate constant for inhibition) [1] of 2900 M⁻¹ s⁻¹.
Substance “FIXa K247N/N249S/R318Y/R338E/E410N (from UniProt P00740 47-191; P00740 227-461) (enzyme)” has a kapp (apparent second-order rate constant for inhibition) [1] of 860000 M⁻¹ s⁻¹.
“FIXa K247N/N249S/R318Y/R338E/R403E/E410N (from UniProt P00740 47-191; P00740 227-461) (enzyme)” gave a kapp (apparent second-order rate constant for inhibition) [1] of 2000 M⁻¹ s⁻¹.
In the case of “FIXa-K228N/I251S/R318Y/R338E/R403E/E410N (from UniProt P00740 47-191; P00740 227-461) (enzyme)”, the kapp (second-order rate constant for inhibition) [2] is reported as 900 M⁻¹ s⁻¹.
For “FIXa-K228N/K247N/N249S/R318Y/R338E/T343R/R403E/E410N (from UniProt P00740 47-191; P00740 227-461) (enzyme)”, the kapp (second-order rate constant for inhibition) [2] was 5300 M⁻¹ s⁻¹.
Substance “FIXa-K247N/N249S/R318Y/R338E/T343R/R403E (from UniProt P00740 47-191; P00740 227-461) (enzyme)” has a kapp (second-order rate constant for inhibition) [2] of 1700 M⁻¹ s⁻¹.
For “FIXa-K247N/N249S/R318Y/R338E/T343R/R403E/E410N (from UniProt P00740 47-191; P00740 227-461) (enzyme)”, the kapp (second-order rate constant for inhibition) [2] was 9600 M⁻¹ s⁻¹.
For “FIXa-K247N/N249S/R338E/T343R/R403E/E410N (from UniProt P00740 47-191; P00740 227-461) (enzyme)”, the kapp (second-order rate constant for inhibition) [2] was 86000 M⁻¹ s⁻¹.
Work on “FIXa-N260S/R318Y/R338E/T343R/R403E/E410N (from UniProt P00740 47-191; P00740 227-461) (enzyme)” yielded a kapp (second-order rate constant for inhibition) [2] of 2600 M⁻¹ s⁻¹.
Work on “FIXa-R318Y/R338E/T343R/R403E (from UniProt P00740 47-191; P00740 227-461) (enzyme)” yielded a kapp (second-order rate constant for inhibition) [2] of 5800 M⁻¹ s⁻¹.
“FIXa-R318Y/R338E/T343R/R403E/E410S (from UniProt P00740 47-191; P00740 227-461) (enzyme)” showed a kapp (second-order rate constant for inhibition) [2] of 9900 M⁻¹ s⁻¹.
Work on “FIXa-R318Y/T343R/R403E/E410N (from UniProt P00740 47-191; P00740 227-461) (enzyme)” yielded a kapp (second-order rate constant for inhibition) [2] of 93000 M⁻¹ s⁻¹.
“FIXa-R338E/T343R/R403E (from UniProt P00740 47-191; P00740 227-461) (enzyme)” was tested, and the kapp (second-order rate constant for inhibition) [2] was 190000 M⁻¹ s⁻¹.
“FIXa-Y155F/I251S/R338E/T343R/R403E (from UniProt P00740 47-191; P00740 227-461) (enzyme)” was tested, and the kapp (second-order rate constant for inhibition) [2] was 160000 M⁻¹ s⁻¹.
“FIXa-Y155F/K228N/I251S/R318Y/R338E/R403E/E410N (from UniProt P00740 47-191; P00740 227-461) (enzyme)” was tested, and the kapp (second-order rate constant for inhibition) [2] was 1300 M⁻¹ s⁻¹.
Substance “FIXa-Y155F/K228N/K247N/N249S/R318Y/R338E/R403E/E410N (from UniProt P00740 47-191; P00740 227-461) (enzyme)” has a kapp (apparent second-order rate constant for inhibition) [3] of 1100 M⁻¹ s⁻¹.
Substance “FIXa-Y155F/K228N/K247N/N249S/R318Y/R338E/T343R/R403E/E410N (from UniProt P00740 47-191; P00740 227-461) (enzyme)” has a kapp (second-order rate constant for inhibition) [2] of 2200 M⁻¹ s⁻¹.
For “FIXa-Y155F/K247N/N249S/N260S/R318Y/R338E/R403E/E410N (from UniProt P00740 47-191; P00740 227-461) (enzyme)”, the kapp (apparent second-order rate constant for inhibition) [3] was 430 M⁻¹ s⁻¹.
With “FIXa-Y155F/K247N/N249S/R318Y/E410N (from UniProt P00740 47-191; P00740 227-461) (enzyme)” the kapp (second-order rate constant for inhibition) [2] was 130000 M⁻¹ s⁻¹.
Substance “FIXa-Y155F/K247N/N249S/R318Y/R338E (from UniProt P00740 47-191; P00740 227-461) (enzyme)” has a kapp (second-order rate constant for inhibition) [2] of 27000 M⁻¹ s⁻¹.
In the case of “FIXa-Y155F/K247N/N249S/R318Y/R338E/R403E (from UniProt P00740 47-191; P00740 227-461) (enzyme)”, the kapp (apparent second-order rate constant for inhibition) [3] is reported as 810 M⁻¹ s⁻¹.
In the case of “FIXa-Y155F/K247N/N249S/R318Y/R338E/T343R/E410N (from UniProt P00740 47-191; P00740 227-461) (enzyme)”, the kapp (second-order rate constant for inhibition) [2] is reported as 220000 M⁻¹ s⁻¹.
With “FIXa-Y155F/K247N/N249S/R318Y/R338E/T343R/R403E (from UniProt P00740 47-191; P00740 227-461) (enzyme)” the kapp (second-order rate constant for inhibition) [2] was 2300 M⁻¹ s⁻¹.
“FIXa-Y155F/K247N/N249S/R318Y/R338E/T343R/R403E/E410N (from UniProt P00740 47-191; P00740 227-461) (enzyme)” showed a kapp (second-order rate constant for inhibition) [2] of 8700 M⁻¹ s⁻¹.
With “FIXa-Y155F/K247N/N249S/R318Y/R403E (from UniProt P00740 47-191; P00740 227-461) (enzyme)” the kapp (second-order rate constant for inhibition) [2] was 2100 M⁻¹ s⁻¹.
Substance “FIXa-Y155F/K247N/N249S/R318Y/R403E/E410N (from UniProt P00740 47-191; P00740 227-461) (enzyme)” has a kapp (apparent second-order rate constant for inhibition) [3] of 7300 M⁻¹ s⁻¹.
Work on “FIXa-Y155F/K247N/N249S/R338E/R403E (from UniProt P00740 47-191; P00740 227-461) (enzyme)” yielded a kapp (second-order rate constant for inhibition) [2] of 13000 M⁻¹ s⁻¹.
In the case of “FIXa-Y155F/K247N/N249S/R338E/R403E/E410N (from UniProt P00740 47-191; P00740 227-461) (enzyme)”, the kapp (apparent second-order rate constant for inhibition) [3] is reported as 42000 M⁻¹ s⁻¹.
“FIXa-Y155F/K247N/N249S/R338E/T343R (from UniProt P00740 47-191; P00740 227-461) (enzyme)” showed a kapp (second-order rate constant for inhibition) [2] of 1.2e+07 M⁻¹ s⁻¹.
For “FIXa-Y155F/K247N/N249S/R338E/T343R/R403E/E410N (from UniProt P00740 47-191; P00740 227-461) (enzyme)”, the kapp (second-order rate constant for inhibition) [2] was 89000 M⁻¹ s⁻¹.
For “FIXa-Y155F/K247N/N249S/T343R/R403E (from UniProt P00740 47-191; P00740 227-461) (enzyme)”, the kapp (second-order rate constant for inhibition) [2] was 140000 M⁻¹ s⁻¹.
“FIXa-Y155F/N260S/R318Y/R338E/R403E/E410N (from UniProt P00740 47-191; P00740 227-461) (enzyme)” was tested, and the kapp (apparent second-order rate constant for inhibition) [3] was 2100 M⁻¹ s⁻¹.
Substance “FIXa-Y155F/N260S/R318Y/R338E/T343R/R403E/E410N (from UniProt P00740 47-191; P00740 227-461) (enzyme)” has a kapp (second-order rate constant for inhibition) [2] of 2600 M⁻¹ s⁻¹.
With “FIXa-Y155F/N260S/R338E/T343R/R403E (from UniProt P00740 47-191; P00740 227-461) (enzyme)” the kapp (second-order rate constant for inhibition) [2] was 40000 M⁻¹ s⁻¹.
For “FIXa-Y155F/R318Y/R338E/N346D/R403E/E410N (from UniProt P00740 47-191; P00740 227-461) (enzyme)”, the kapp (apparent second-order rate constant for inhibition) [3] was 1600 M⁻¹ s⁻¹.
“FIXa-Y155F/R318Y/R338E/T343R/E410N (from UniProt P00740 47-191; P00740 227-461) (enzyme)” was tested, and the kapp (second-order rate constant for inhibition) [2] was 780000 M⁻¹ s⁻¹.
“FIXa-Y155F/R318Y/R338E/T343R/R403E (from UniProt P00740 47-191; P00740 227-461) (enzyme)” showed a kapp (second-order rate constant for inhibition) [2] of 2800 M⁻¹ s⁻¹.
With “FIXa-Y155F/R318Y/R338E/T343R/R403E/E410N (from UniProt P00740 47-191; P00740 227-461) (enzyme)” the kapp (apparent second-order rate constant for inhibition) [3] was 8600 M⁻¹ s⁻¹.
Substance “FIXa-Y155F/R318Y/T343R/R403E/E410N (from UniProt P00740 47-191; P00740 227-461) (enzyme)” has a kapp (second-order rate constant for inhibition) [2] of 55000 M⁻¹ s⁻¹.
“FIXa-Y155F/R338E/T343R/R403E (from UniProt P00740 47-191; P00740 227-461) (enzyme)” showed a kapp (second-order rate constant for inhibition) [2] of 93000 M⁻¹ s⁻¹.
For “FIXa-Y155F/R338E/T343R/R403E/E410N (from UniProt P00740 47-191; P00740 227-461) (enzyme)”, the kapp (second-order rate constant for inhibition) [2] was 280000 M⁻¹ s⁻¹.
“FIXa-Y155F/R338E/T343R/R403E/E410S (from UniProt P00740 47-191; P00740 227-461) (enzyme)” gave a kapp (second-order rate constant for inhibition) [2] of 220000 M⁻¹ s⁻¹.
